Patent publication US20110039770A1 (PHARMAGAP, published 2011)

Key:
[1] = molecular target: T1, PKC-βII (purified isoform) (Homo sapiens (Human), UniProt P05771 2-621); test: competitive ELISA, coated purified PKC-βII, vs anti-PKC βII (SC-210); PRE 100 µM
T1 construct: also called PKC-beta II; PKC beta 2
Protocol: (§1) Greiner 96 well ELISA plates were coated with the appropriate PKC isoform diluted in PBSN (PBS with Calcium/Magnesium+0.05% Sodium azide w/w). 50 μL/well at 250 ng/mL was used. Control wells contained PBSN only. Plates were incubated overnight at 4° C.
(§2) The plates were washed 3 times with 200 μL of dH₂O per well, then 100 μL of blocking solution was added per well and the plate incubated for 1 h at 37° C. The washing steps with dH₂O were repeated and 50 μL of the appropriate PRE solution (PRE stock solution [20 mM in DMSO] diluted in PBSN) was added and the plate incubated for 1 h at room temperature.
(§3) 50 μL of 1:1000 dilution of Alkaline Phosphatase (AP) conjugated antibody (anti-rabbit for all except zeta, which was anti-goat) was then added and the plate incubated for 1 h at room temperature. Washing with dH₂O was then repeated. Finally, 100 μL of pNPP solution in pNPP buffer (2 mM MgCl₂, 100 mM Sodium bicarbonate in water, pH 9.8) was added to all wells and incubated for 8 minutes for α, βI, βII ε, and ζ, or for 15-20 mins for δ (until sufficient coloration is observed). The reaction was stopped by addition of Stop solution (2N NaOH) and the absorbance at 405 nm was read on a Galaxy Plate reader.

[2] = molecular target: T1, PKC-βII (purified isoform); test: competitive ELISA, coated purified PKC-βII, vs anti-PKC βII (SC-210); PRE 50 µM
Protocol: as §1, §2, §3

[3] = molecular target: T2, PKC-βI (purified isoform) (Homo sapiens (Human), UniProt P05771 2-671); test: competitive ELISA, coated purified PKC-βI, vs anti-PKC βI (SC-209); PRE 100 µM
T2 construct: also called PKC-beta I; PKC beta 1
Protocol: as §1, §2, §3

[4] = molecular target: T3, PKC-α (purified isoform) (Homo sapiens (Human), UniProt P17252 2-672); test: competitive ELISA, coated purified PKC-α, vs anti-PKC α (SC-208); PRE 200 µM
T3 construct: also called purified PKC-alpha; commercially purified PKC-alpha
Protocol: as §1, §2, §3

[5] = molecular target: T2, PKC-βI (purified isoform); test: competitive ELISA, coated purified PKC-βI, vs anti-PKC βI (SC-209); PRE 50 µM
Protocol: as §1, §2, §3

[6] = molecular target: T4, PKC-δ (purified isoform); test: competitive ELISA, coated purified PKC-δ, vs anti-PKC δ (SC-213); PRE 100 µM
T4 construct: also called PKC-delta
Protocol: as §1, §2, §3

[7] = molecular target: T4, PKC-δ (purified isoform); test: competitive ELISA, coated purified PKC-δ, vs anti-PKC δ (SC-213); PRE 200 µM
Protocol: as §1, §2, §3

[8] = molecular target: T2, PKC-βI (purified isoform); test: competitive ELISA, coated purified PKC-βI, vs anti-PKC βI (SC-209); PRE 200 µM
Protocol: as §1, §2, §3

[9] = molecular target: T1, PKC-βII (purified isoform); test: competitive ELISA, coated purified PKC-βII, vs anti-PKC βII (SC-210); PRE 200 µM
Protocol: as §1, §2, §3

[10] = molecular target: T3, PKC-α (purified isoform); test: competitive ELISA, coated purified PKC-α, vs anti-PKC α (SC-208); PRE 100 µM
Protocol: as §1, §2, §3

[11] = molecular target: T3, PKC-α (purified isoform); test: competitive ELISA, coated purified PKC-α, vs anti-PKC α (SC-208); PRE 50 µM
Protocol: as §1, §2, §3

[12] = molecular target: T4, PKC-δ (purified isoform); test: competitive ELISA, coated purified PKC-δ, vs anti-PKC δ (SC-213); PRE 50 µM
Protocol: as §1, §2, §3

T4 sequence (Q05655 whole entry, stated change not applied, canonical isoform): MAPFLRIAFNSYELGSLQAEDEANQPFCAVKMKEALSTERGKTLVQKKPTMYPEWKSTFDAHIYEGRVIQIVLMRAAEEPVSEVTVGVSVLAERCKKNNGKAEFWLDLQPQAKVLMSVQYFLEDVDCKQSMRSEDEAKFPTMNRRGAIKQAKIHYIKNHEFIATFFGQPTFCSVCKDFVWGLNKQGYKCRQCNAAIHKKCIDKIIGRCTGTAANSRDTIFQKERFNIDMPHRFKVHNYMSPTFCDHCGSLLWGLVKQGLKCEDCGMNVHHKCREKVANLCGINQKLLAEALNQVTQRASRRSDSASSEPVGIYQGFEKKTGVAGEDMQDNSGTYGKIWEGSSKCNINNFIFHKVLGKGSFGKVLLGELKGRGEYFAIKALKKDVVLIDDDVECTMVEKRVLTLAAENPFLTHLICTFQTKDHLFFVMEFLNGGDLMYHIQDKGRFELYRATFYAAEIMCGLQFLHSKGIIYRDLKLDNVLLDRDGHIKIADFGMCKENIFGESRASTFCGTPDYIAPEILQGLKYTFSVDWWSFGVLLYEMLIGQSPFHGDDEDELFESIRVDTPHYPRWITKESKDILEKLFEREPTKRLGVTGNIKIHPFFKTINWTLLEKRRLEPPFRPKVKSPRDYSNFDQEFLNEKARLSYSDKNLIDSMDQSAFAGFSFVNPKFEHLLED
T1 sequence (P05771 other isoform, or with tags, fused parts or gaps limits assumed): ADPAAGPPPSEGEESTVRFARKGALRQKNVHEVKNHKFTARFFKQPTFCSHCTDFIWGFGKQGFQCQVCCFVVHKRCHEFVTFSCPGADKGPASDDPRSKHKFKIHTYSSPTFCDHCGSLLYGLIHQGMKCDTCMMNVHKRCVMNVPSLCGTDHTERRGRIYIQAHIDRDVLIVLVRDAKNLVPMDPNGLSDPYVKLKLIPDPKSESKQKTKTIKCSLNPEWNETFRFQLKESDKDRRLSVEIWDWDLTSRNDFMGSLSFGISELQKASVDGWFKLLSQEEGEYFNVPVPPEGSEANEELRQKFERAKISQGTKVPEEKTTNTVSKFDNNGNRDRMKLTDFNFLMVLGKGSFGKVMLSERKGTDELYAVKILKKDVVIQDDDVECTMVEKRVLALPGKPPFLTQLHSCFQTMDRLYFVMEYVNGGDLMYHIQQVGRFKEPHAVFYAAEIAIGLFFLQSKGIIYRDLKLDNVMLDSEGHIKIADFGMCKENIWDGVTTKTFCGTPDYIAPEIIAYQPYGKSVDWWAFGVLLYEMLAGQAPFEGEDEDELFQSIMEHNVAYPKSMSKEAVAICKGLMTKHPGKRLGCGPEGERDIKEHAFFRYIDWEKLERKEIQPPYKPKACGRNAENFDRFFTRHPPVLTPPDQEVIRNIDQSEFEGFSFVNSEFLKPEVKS
T2 sequence (P05771 2-671 limits assumed): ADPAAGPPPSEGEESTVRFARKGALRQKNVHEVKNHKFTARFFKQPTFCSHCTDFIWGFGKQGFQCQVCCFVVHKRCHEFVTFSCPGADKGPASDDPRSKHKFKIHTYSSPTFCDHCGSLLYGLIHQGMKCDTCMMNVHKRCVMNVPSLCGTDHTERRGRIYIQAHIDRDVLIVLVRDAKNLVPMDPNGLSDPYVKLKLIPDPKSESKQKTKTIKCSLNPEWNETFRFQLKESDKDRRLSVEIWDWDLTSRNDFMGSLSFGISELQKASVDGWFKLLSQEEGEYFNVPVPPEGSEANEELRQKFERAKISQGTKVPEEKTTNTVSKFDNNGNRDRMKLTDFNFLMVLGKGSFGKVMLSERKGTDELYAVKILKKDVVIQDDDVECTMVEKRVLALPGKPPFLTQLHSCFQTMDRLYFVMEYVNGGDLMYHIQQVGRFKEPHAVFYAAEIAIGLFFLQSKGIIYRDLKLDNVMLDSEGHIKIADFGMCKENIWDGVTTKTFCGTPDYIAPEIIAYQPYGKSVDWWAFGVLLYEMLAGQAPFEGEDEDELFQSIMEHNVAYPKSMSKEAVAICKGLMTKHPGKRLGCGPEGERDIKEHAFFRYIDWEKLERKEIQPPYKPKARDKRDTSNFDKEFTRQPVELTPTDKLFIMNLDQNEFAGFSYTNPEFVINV

| relative binding capacity (100-%n, DMSO subtracted) [1] [%] | relative binding capacity (100-%n, DMSO subtracted) [2] [%] | relative binding capacity (100-%n, DMSO subtracted) [3] [%] | relative binding capacity (100-%n, DMSO subtracted) [4] [%] | relative binding capacity (100-%n, DMSO subtracted) [5] [%] | relative binding capacity (100-%n, DMSO subtracted) [6] [%] | relative binding capacity (100-%n, DMSO subtracted) [7] [%] | relative binding capacity (100-%n, DMSO subtracted) [8] [%] | relative binding capacity (100-%n, DMSO subtracted) [9] [%] | relative binding capacity (100-%n, DMSO subtracted) [10] [%] | relative binding capacity (100-%n, DMSO subtracted) [11] [%] | relative binding capacity (100-%n, DMSO subtracted) [12] [%] | Binder |
| --- | --- | --- | --- | --- | --- | --- | --- | --- | --- | --- | --- | --- |
| 11 | 7.14 | 14.2 | 13.3 | 9.86 | 21.5 | 18.7 | 12.5 | 6.4 | 5.96 | 0 | 34.1 | Ac-RDAQNLIGISI-NH2 (also called peptide PRE 11) [PRE 11] |
| 0 | 0.08 | 7.93 | 0 | 0 | 13.2 | 14 | 6.14 | 0 | 0 | 0 | 17.5 | Ac-KDANQLIGISI-NH2 (also called peptide PRE 6) [PRE 6] |
| 0 | 1.11 |  | 0 |  | 3.38 | 6.68 |  | 0 | 0 | 0 | 6.96 | ILEDKGGDAQNLIGISI (also called peptide PRE 8) [PRE 8] |
